# Data as given in publication PMC8539926.
# How the values were obtained:
# CXCR4 [1] = target: CXCR4 (UniProt P61073)
# CXCR4 [2] = target: CXCR4 (UniProt P61073); remark: listed apart in the source
# CXCR4 [3] = target: CXCR4 (UniProt P61073); remark: listed apart in the source
# Sequence of UniProt P61073 (P61073 whole entry): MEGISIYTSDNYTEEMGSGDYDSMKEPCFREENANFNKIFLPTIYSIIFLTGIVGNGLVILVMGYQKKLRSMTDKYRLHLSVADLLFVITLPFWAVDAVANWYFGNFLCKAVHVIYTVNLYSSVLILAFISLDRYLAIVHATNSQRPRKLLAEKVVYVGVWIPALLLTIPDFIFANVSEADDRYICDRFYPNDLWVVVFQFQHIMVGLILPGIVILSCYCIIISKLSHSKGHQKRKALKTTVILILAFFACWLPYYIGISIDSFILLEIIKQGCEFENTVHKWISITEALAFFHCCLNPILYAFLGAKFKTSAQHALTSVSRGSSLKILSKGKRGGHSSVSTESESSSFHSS
substance,measurement,setting,value
[S4V]-[V49A]-CXCL12-GPLS (from UniProt P48061-2 22-89) (ligand),"fold regain of migration potential against compound 4, Jurkat cells (endogenous CXCR4), Transwell assay",CXCR4 [1],2 fold
[S4V]-[V49A]-CXCL12 (from UniProt P48061-2 22-89) (ligand),"fold decrease in Jurkat cell migration (endogenous CXCR4) compared with CXCL12 wt, Transwell assay",CXCR4 [1],11 fold
CXCL12 wild type (from UniProt P48061-2 22-89) (ligand),"concentration of the best response, Transwell migration of Jurkat cells (endogenous CXCR4), 2 h, dilution series",CXCR4 [2],30 nM
same,"Emax of IP accumulation, COS-7 cells with CXCR4-eYFP and chimeric Gαqi protein, normalized to CXCL12 wt",CXCR4 [3],100%
[S4V]-[V49A]-CXCL12-MMPCS-SBP (from UniProt P48061-2 22-89) (ligand),"concentration of the migration maximum, Transwell migration of Jurkat cells (endogenous CXCR4), 2 h, dilution series",CXCR4 [2],700 nM
